Measurements: publication PMC4830966, “Molecular basis of the STIL coiled coil oligomerization explains its requirement for de-novo formation of centrosomes in mammalian cells” (Scientific Reports, 2016)

Legend:
[1] = target: the molecule itself; experiment: SEC; 250 µl of 100 μM peptide on Superdex30 analytical column, 25 mM sodium phosphate buffer pH 6.8 (IS = 40 mM); comparison of elution profiles
[2] = target: the molecule itself; experiment: SEC; 35 μM WT STIL CCD peptide on Superdex30 analytical column, 25 mM sodium phosphate buffer pH 6.8 (IS = 40 mM)
[3] = target: the molecule itself; experiment: SEC; 500 μM WT STIL CCD peptide on Superdex30 analytical column, 25 mM sodium phosphate buffer pH 6.8 (IS = 40 mM)

| Protein | stoichiometry N [1] | stoichiometry N [2] | stoichiometry N [3] |
| --- | --- | --- | --- |
| LSPDAYRFLTEQDRQLRLLQAQIQRLLEAQSL (also called WT CCD; STIL coiled coil peptide; source: synthetic peptide) [WT STIL CCD peptide (STIL amino acids 718-749)] | ~4 | ~2 | 4 |
| ESPDAYRFLTEQDRQLRLLQAQIQRLLEAQSL (source: synthetic peptide) [STIL CCD L718E peptide] | ~2 |  |  |
| LSPDAYRFLTEQDRQLRLEQAQIQRLLEAQSL (source: synthetic peptide) [STIL CCD L736E peptide] | ~2 |  |  |
